Measured values as given in article PMC4556779 (Redox Biology, 2015).

Target: the molecule itself
Test: SEC

B1: sulfinylated Myc-Tsa1 (CP-SO2H), from H2O2-exposed cells (enzyme, S. cerevisiae, UniProt P34760 1-196, looked up)
chain: MVAQVQKQAPTFKKTAVVDGVFDEVSLDKYKGKYVVLAFIPLAFTFVCPTEIIAFSEAAKKFEEQGAQVLFASTDSEYSLLAWTNIPRKEGGLGPINIPLLADTNHSLSRDYGVLIEEEGVALRGLFIIDPKGVIRHITINDLPVGRNVDEALRLVEAFQWTDKNGTVLPCNWTPGAATIKPTVEDSKEYFEAANK
modifications: sulfinic acid (CP-SO2H) at the peroxidatic Cys (CP, C48)
stoichiometry N: ~20
